The RNAGym collection of RNA variant scans (doi:10.1073/pnas.2313332121)

B1: TPR t1 (parent)
chain: GACCAAUCUGCCCUCAGAGCUCGAGAACAUCUUCGGAUGCAGAGGAGGCAGGCUUCGGUGGCGCGAUAGCGCCAACGUCCUCAACCUCCAAUGCAUCCCACCACAUGAUGAUGCCUGAAGAGCCUUGGUUUUUUG

Variants of: B1
Experiment: polymerase ribozyme fitness, log enrichment relative to wild type (log ratio); higher = more active; in vitro selection for triplet polymerase activity
Method in brief: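 Fitness is a logarithmic measure of how a genotype enriched relative to the wild type, with replicate averages weighted by inverse variance. The logarithm uses base 2, and enrichment came from Illumina sequencing of input and output libraries. Those libraries were PCR-built, transcribed mutants of each subunit of a heterodimeric triplet polymerase ribozyme, passed through one triplicate in vitro selection round that included frozen incubation at −7 °C, gel excision of extended constructs and streptavidin-bead capture. Genotypes were kept only if they had ≥10 input reads and ≥1 read per output.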

Variant | polymerase ribozyme fitness (log ratio)
GACCAAUCUGCCCUCAGAGCUCGAGAACAUCUUCGGAUGCAGAGGAGGCAGGCUUCGGUGGCGCGAUAGCCCCAACGUCCUCAACCUCCAAUGCAUCCCACCACAUGAUGAUGCCUGAAGAGUCUUGGUUUUUUG [G71C C123U] | -0.362
GACCAAUCUGCCCUCAGAGCUCGAGAACAUCUUCGGAUGCAGAGGAGGCAGGCUUCGGUGGCGCGAUAGCCCCAACGUCCUCUACCUCCAAUGCAUCCCACCACAUGAUGAUUCCUGAAGAGCCUUGGUUUUUUG [G71C A83U G113U] | -4.07
GACCAAUCUGCCCUCAGAGCUCGAGAACAUCUUCGGAUGCAGAGGAGGCAGGCUUCGGUGGCGCGAUAGCCCCAACGUCCUCAACCUCCAAUUCAUCCCACCAUAUGAUGAUGCCUGAGGAGCCUUGGUUUUUUG [G71C G93U C104U A119G] | -1.16
GACCAAUCUGCCCUCAGAGCUCGAGAACAUCUUCGGAUGCAGAGGAGGCAGGCUUCGGUGGCGCGAUAGCCCCAACGUGCUCAACCUCCAAUGCAUCCCACCACAUGAUGAUGCCUGAAGAGCCUUGGUUUUUUG [G71C C79G] | -1.96
GACCAAUCUGCCCUCAGAGCUCGAGAACAUCUUCGGAUGCAGAGGAGGCAGGCUUCGGUGGCGCGAUAGCCCCAACGUCCUCAACCUCCAAUGCAUCCCACCACAUGAUGAUUCCUGAAGAGCCUUGGUUUUUUG [G71C G113U] | -2.72
GACCAAUCUGCCCUCAGAGCUCGAGAACAUCUUCGGAUGCAGAGGAGGCAGGCUUCGGUGGCGCGAUAGCCCCUACGUCCUCAACCUCUAAUGCAUCCCACCACAUGAUCAUGCCUGAAGAGCCAUGGAUUUUUG [G71C A74U C89U G110C U125A U129A] | -7.38
GACCAAUCUGCCCUCAGAGCUCGAGAACAUCUUCGGAUGCAGAGGAGGCAGGCUUCGGUGGCGCGAUAGCACCAACGUCCUCAACCUCCAAUGCAUCCCACCACAAGAUGAUGCCUGAAGAGCCUUGGUUUUAUG [G71A U106A U133A] | -1.42
GACCAAUCUGCCCUCAGAGCUCGAGAACAUCUUCGGAUGCAGAGGAGGCAGGCUUCGGUGGCGCGAUAGCACCAACGUCCUCAACCUCCAAUGCAUCCCACCACAUGACGAUGCCUGAAGAGCCUUGGUUUUUUG [G71A U109C] | -4.59
GACCAAUCUGCCCUCAGAGCUCGAGAACAUCUUCGGAUGCAGAGGAGGCAGGCUUCGGUGGCGCGAUAGCCCCAACGUCCUCAACCUCCAAUGCAUCCCACCACAUGAUGAUGCCUGAAGAGCAUUGGUUUUUUG [G71C C124A] | -0.102
GACCAAUCUGCCCUCAGAGCUCGAGAACAUCUUCGGAUGCAGAGGAGGCAGGCUUCGGUGGCGCGAUAGCCCCAACGUCCUCAACCUCCAAUGCAUCCCACCACAUGAUGAUGCCUGAACAGCCUUGGUUUUUUG [G71C G120C] | 0.219
GACCAAUCUGCCCUCAGAGCUCGAGAACAUCUUCGGAUGCAGAGGAGGCAGGCUUCGGUGGCGCGAUAGCACCAACGUCCUCAACCUCCAAUGCAUCCCACCACAUGAUGAUGCCUGAAGAGCCUUGGUUGUUUG [G71A U131G] | -1.27
GACCAAUCUGCCCUCAGAGCUCGAGAACAUCUUCGGAUGCAGAGGAGGCAGGCUUCGGUGGCGCGAUAGCCCCAACGUCCUCAACCUCCAAUGCAUUCCACCACAUGAUGAUGCCUGAAGAGCCUUGGUUUUUUG [G71C C97U] | -1.45
GACCAAUCUGCCCUCAGAGCUCGAGAACAUCUUCGGAUGCAGAGGAGGCAGGCUUCGGUGGCGCGAUAGCCCCAACGUCCUCAACCUCCAAUGCAUCCCACCACAUGAUGAUGCCUGAAGAGCCUUGGUUUUUUU [G71C G135U] | -2.55
GACCAAUCUGCCCUCAGAGCUCGAGAACAUCUUCGGAUGCAGAGGAGGCAGGCUUCGGUGGCGCGAUAGCCACAACGUCCUCAACCUCCAAUGCAUCCCACCACAUGAUGAUGCCUGAAGAGCCUUGGUUUUUUG [G71C C72A] | -6.22
GACCAAUCUGCCCUCAGAGCUCGAGAACAUCUUCGGAUGCAGAGGAGGCAGGCUUCGGUGGCGCGAUAGCCCCAACGACCUCAACCUCCAAUGCAUCCCACCACAUGAUGAUGCCUGAAGAGCCUUGGUUUUUUG [G71C U78A] | -0.14
GACCAAUCUGCCCUCAGAGCUCGAGAACAUCUUCGGAUGCAGAGGAGGCAGGCUUCGGUGGCGCGAUAGCACCAACGUCCUCAACCUCCAAUGCAUCCCACCACAUGAUGAUGCCUGAAGAGCCUUGGUUUAUUG [G71A U132A] | -0.617
GACCAAUCUGCCCUCAGAGCUCGAGAACAUCUUCGGAUGCAGAGGAGGCAGGCUUCGGUGGCGCGAUAGCACCAACGUCCUCAACCUCCAAUGCAACCCACCACAUGAUGAUGCCUGAAGAGCCUUGGUUUUUUG [G71A U96A] | -2.13
GACCAAUCUGCCCUCAGAGCUCGAGAACAUCUUCGGAUGCAGAGGAGGCAGGCUUCGGUGGCGCGAUAGCCCCAACGUCCUCAACCUCGAAUGCAUCCCACCACAUGAUGAUGCCUGAAGAGCCUUGGUCUUUUG [G71C C89G U130C] | -4.18
GACCAAUCUGCCCUCAGAGCUCGAGAACAUCUUCGGAUGCAGAGGAGGCAGGCUUCGGUGGCGCGAUAGCCCCAACGUCCUCAACCUCCUAUGCAUCCCACCACAUGAUGAUGCCUGAAGAAUCUUGGUUUUUUG [G71C A90U G122A C123U] | -3.12
GACCAAUCUGCCCUCAGAGCUCGAGAACAUCUUCGGAUGCAGAGGAGGCAGGCUUCGGUGGCGCGAUAGCACCAACGUCCUCAACCUCCAAUGCAUCCCACCACAGGAUGAUGCCUGAAGAGCCUUGGUUUUUUG [G71A U106G] | -2.73
GACCAAUCUGCCCUCAGAGCUCGAGAACAUCUUCGGAUGCAGAGGAGGCAGGCUUCGGUGGCGCGAUAGCACCAACGUCCUCAACCUCCAAUGCAUCCCACCACAAGAUGAUGCCUGAAGAGCCUUGGUUUUUUG [G71A U106A] | -0.841
